# Assay results from IntAct's records for PubMed 35266954.
# B1: Probable E3 ubiquitin-protein ligase MID2 (Homo sapiens), Q9UJV3 (parent)
# chain: MGESPASVVLNASGGLFSLKMETLESELTCPICLELFEDPLLLPCAHSLCFSCAHRILVSSCSSGESIEPITAFQCPTCRYVISLNHRGLDGLKRNVTLQNIIDRFQKASVSGPNSPSESRRERTYRPTTAMSSERIACQFCEQDPPRDAVKTCITCEVSYCDRCLRATHPNKKPFTSHRLVEPVPDTHLRGITCLDHENEKVNMYCVSDDQLICALCKLVGRHRDHQVASLNDRFEKLKQTLEMNLTNLVKRNSELENQMAKLIQICQQVEVNTAMHEAKLMEECDELVEIIQQRKQMIAVKIKETKVMKLRKLAQQVANCRQCLERSTVLINQAEHILKENDQARFLQSAKNIAERVAMATASSQVLIPDINFNDAFENFALDFSREKKLLEGLDYLTAPNPPSIREELCTASHDTITVHWISDDEFSISSYELQYTIFTGQANFISKSWCSWGLWPEIRKCKEAVSCSRLAGAPRGLYNSVDSWMIVPNIKQNHYTVHGLQSGTRYIFIVKAINQAGSRNSEPTRLKTNSQPFKLDPKMTHKKLKISNDGLQMEKDESSLKKSHTPERFSGTGCYGAAGNIFIDSGCHYWEVVMGSSTWYAIGIAYKSAPKNEWIGKNASSWVFSRCNSNFVVRHNNKEMLVDVPPHLKRLGVLLDYDNNMLSFYDPANSLHLHTFDVTFILPVCPTFTIWNKSLMILSGLPAPDFIDYPERQECNCRPQESPYVSGMKTCH
# Variants of: B1
# Conditions: with lrrk2_human LRRK2, Q5S007
# lrrk2_human LRRK2, Q5S007, sequence (Q5S007 whole entry): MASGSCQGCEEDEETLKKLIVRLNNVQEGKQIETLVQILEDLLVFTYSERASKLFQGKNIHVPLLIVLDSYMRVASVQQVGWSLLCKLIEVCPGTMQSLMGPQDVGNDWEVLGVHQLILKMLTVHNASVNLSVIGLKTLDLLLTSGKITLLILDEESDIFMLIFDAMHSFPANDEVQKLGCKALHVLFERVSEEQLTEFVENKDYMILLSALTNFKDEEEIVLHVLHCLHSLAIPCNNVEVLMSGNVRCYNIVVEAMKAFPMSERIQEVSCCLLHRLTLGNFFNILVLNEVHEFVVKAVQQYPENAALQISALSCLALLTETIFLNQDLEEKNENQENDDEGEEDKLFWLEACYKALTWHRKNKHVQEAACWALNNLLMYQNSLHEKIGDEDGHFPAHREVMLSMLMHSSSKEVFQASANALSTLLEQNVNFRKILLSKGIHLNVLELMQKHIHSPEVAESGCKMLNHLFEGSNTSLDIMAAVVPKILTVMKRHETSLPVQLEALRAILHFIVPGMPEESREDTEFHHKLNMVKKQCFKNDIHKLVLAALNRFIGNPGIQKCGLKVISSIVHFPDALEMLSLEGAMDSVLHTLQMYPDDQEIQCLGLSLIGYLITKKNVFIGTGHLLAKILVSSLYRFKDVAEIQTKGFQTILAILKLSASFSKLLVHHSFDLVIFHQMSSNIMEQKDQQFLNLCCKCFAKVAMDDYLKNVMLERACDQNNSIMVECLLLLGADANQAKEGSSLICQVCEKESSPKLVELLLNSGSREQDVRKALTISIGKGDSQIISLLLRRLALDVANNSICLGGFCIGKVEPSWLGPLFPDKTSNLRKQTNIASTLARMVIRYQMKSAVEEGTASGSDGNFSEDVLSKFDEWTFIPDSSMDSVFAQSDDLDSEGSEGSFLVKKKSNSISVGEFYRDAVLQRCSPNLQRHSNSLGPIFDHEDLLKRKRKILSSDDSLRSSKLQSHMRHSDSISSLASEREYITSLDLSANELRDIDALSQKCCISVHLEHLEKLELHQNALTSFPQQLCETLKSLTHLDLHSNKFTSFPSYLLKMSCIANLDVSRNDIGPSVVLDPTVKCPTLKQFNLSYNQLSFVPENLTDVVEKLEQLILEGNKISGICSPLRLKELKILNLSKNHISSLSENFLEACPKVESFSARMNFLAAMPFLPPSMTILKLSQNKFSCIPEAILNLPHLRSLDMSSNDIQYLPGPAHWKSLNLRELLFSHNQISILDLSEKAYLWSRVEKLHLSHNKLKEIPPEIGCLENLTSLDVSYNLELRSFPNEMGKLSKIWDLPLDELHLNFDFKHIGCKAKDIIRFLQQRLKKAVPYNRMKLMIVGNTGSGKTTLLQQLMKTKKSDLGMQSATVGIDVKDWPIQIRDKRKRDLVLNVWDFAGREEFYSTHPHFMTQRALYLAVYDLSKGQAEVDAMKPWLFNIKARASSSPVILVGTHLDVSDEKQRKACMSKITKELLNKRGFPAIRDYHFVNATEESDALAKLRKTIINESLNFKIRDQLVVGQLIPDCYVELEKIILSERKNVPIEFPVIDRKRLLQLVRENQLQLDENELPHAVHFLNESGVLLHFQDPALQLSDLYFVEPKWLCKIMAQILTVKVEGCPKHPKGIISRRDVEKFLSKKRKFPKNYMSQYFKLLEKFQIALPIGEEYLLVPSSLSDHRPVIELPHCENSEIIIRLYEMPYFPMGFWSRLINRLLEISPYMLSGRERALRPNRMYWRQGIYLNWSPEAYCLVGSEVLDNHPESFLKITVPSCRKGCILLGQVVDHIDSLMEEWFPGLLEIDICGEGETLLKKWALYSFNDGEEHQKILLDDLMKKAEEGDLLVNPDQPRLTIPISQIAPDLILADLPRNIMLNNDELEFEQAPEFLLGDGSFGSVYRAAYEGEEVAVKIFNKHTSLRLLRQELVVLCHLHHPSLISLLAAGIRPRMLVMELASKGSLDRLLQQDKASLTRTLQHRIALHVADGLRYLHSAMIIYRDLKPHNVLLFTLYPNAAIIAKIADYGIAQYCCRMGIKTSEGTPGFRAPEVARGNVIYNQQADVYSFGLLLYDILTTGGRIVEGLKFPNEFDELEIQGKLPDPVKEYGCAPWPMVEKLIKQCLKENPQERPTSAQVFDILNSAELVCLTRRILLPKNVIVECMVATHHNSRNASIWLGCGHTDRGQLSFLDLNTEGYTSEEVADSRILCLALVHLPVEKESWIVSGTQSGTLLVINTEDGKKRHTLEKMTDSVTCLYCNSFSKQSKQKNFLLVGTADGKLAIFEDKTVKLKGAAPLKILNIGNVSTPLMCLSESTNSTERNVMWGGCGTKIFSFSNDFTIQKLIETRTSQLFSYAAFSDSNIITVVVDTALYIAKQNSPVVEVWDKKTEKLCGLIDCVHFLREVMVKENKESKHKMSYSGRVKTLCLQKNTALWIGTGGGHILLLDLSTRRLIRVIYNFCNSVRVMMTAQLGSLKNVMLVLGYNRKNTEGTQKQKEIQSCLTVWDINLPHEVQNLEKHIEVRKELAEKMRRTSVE
row,Variant,effect of a mutation on the interaction
1,F348A;L349A;Q350A;L396A;D397A;Y398A,with no effect
